From article PMC4245941, “Timely binding of IHF and Fis to DARS2 regulates ATP–DnaA production and replication initiation” (Nucleic Acids Research, 2014)

Target: the molecule itself
Experiment: native gel or EMSA; DnaA (ADP or ATP form) incubated at 30°C for 5 min in dissociation buffer (20 mM Tris-HCl pH 7.5, 100 mM potassium glutamate, 10 mM magnesium acetate, 2 mM ATP) with DARS2ΔRight or DARS2ΔRight/subFBS1 DNA (15 fmol) and poly (dI-dC), 5% PAGE; DnaA multimers form on the DNA; without or with IHF and Fis

B1: DnaA (wild type) (natural protein, Escherichia coli, UniProt P03004 1-467, looked up)
chain: MSLSLWQQCLARLQDELPATEFSMWIRPLQAELSDNTLALYAPNRFVLDWVRDKYLNNINGLLTSFCGADAPQLRFEVGTKPVTQTPQAAVTSNVAAPAQVAQTQPQRAAPSTRSGWDNVPAPAEPTYRSNVNVKHTFDNFVEGKSNQLARAAARQVADNPGGAYNPLFLYGGTGLGKTHLLHAVGNGIMARKPNAKVVYMHSERFVQDMVKALQNNAIEEFKRYYRSVDALLIDDIQFFANKERSQEEFFHTFNALLEGNQQIILTSDRYPKEINGVEDRLKSRFGWGLTVAIEPPELETRVAILMKKADENDIRLPGEVAFFIAKRLRSNVRELEGALNRVIANANFTGRAITIDFVREALRDLLALQEKLVTIDNIQKTVAEYYKIKVADLLSKRRSRSVARPRQMAMALAKELTNHSLPEIGDAFGGRDHTTVLHACRKIEQLREESHDIKEDFSNLIRTLSS
notes: DnaA, chromosomal replication initiator protein, Escherichia coli, wild type; Used loaded with ADP or ATP (not covalent); also called ADP–DnaA; ATP–DnaA
binding result: binds
